We go through three molecules from doi:10.1101/2024.07.29.605598 (bioRxiv, 2024).

B1: Drosophila melanogaster Cno RA2 domain (amino acids 222-350) (domain or fragment, UniProt Q24279 222-350, looked up)
chain: TRSISNPEAVMRRRRQQKLEKKLQQFRSRDGGPDTGGTLKIYGESLCQDVPYKTLLLSIRDCAQAVVREMLTKYGLEKADPLHYCLVQVNSDGTEYILDDDECPLSILMNHPTSRGSIMFHVRRRPADS
B2: Drosophila melanogaster Cno RA1 domain (amino acids 1-137) (domain or fragment, UniProt Q24279 1-137, looked up)
chain: MSHDKKMLDREAVRSVIQQWNANRLDLFALSEPDENLLFHGVMRFYFQDAGQKVATKCIRVASDATVTDVIDTLIEKFRPDMRMLSVPNYALYEVHANGEERRLNADEKPLLVQLNWHIDDREGRFLLKNIDQKTTP
B3: Drosophila melanogaster GTPase Rap1 G12V (amino acids 1-180), GMPPNP-loaded (enzyme, UniProt P08645 1-180, looked up)
chain: MREYKIVVLGSVGVGKSALTVQFVQCIFVEKYDPTIEDSYRKQVEVDGQQCMLEILDTAGTEQFTAMRDLYMKNGQGFVLVYSITAQSTFNDLQDLREQILRVKDTDDVPMVLVGNKCDLEEERVVGKELGKNLATQFNCAFMETSAKAKVNVNDIFYDLVRQINKKSPEKKQKKPKKSL

Assay [1] deals with B3. Description: ITC. (ITC needs no label: the signal is the heat of the interaction.)
For assay [2], the target named is B2. Description: SEC-MALS.
The target in assay [3] is B2. Description: ITC.
The target of assay [4] is B1. Description: ITC.

Where “and” joins values, the source holds several entries; their conditions need not be identical. Equal entries are not always repeated.

On to B1, for which, in assay [1], the dissociation constant Kd is 8.8 µM and 7.9 µM and 8.7 µM.

With B2, the Kd in assay [1] is 4.5 µM and 5.9 µM.

For the molecule B3, the “stoichiometry N” value in assay [2] is 1; in assay [3], 0.717; in assay [4], 0.755 and 0.73 and 0.63. Moreover, the dH was -4.38 kcal/mol and -4.79 kcal/mol in assay [3]; -3.07 kcal/mol and -2.18 kcal/mol and -2.72 kcal/mol in assay [4].

By Kd is commonly meant the constant that tells how readily two partners part at equilibrium. Low readings indicate tighter binding, high ones weaker binding. As usually defined, the stoichiometry N is a count of units in the complex or per binding partner.
